Results published in patent publication US20140057807A1 (UNIVERSITY OF CHICAGO, published 2014).

B1: SEQ ID NO 218 (designed binder)
chain: VSDVPRDLGVVAATPTSLRISWDAPAVTVRSYDIYYWYTTGGSQEFTVPGSKSTATISGLKPGVMYNIYVTAVDADVGGPISINYRT
B2: SEQ ID NO 210 (designed binder)
chain: VSDVPRDLEVVAATPTSLLISWDAPAVTVRKYYITYYRGRSGNQEFTVPGSKSTATISGLKPGVKYHILVSAVKYPFRRLPISINYRT
B3: SEQ ID NO 213 (designed binder)
chain: VSDVPRDLEVVAATPTSLLISWDAPAVTVRGYSIKYGSTISADQEFTVPGSKSTATISGLKPGVFYVIMVWAVYYAYANYPISINYRT
B4: SEQ ID NO 215 (designed binder)
chain: VSDVPRDLEVVAATPTSLLISWDAPAVTVRTYVISYMSYDAQGGQNQEFTVPGSKSTATISGLKPGVAYNIIVSAVGGGQQAVPISINYRT
B5: SEQ ID NO 209 (designed binder)
chain: VSDVPRDLEVVAATPTSLLISWDAPAVTVRNYYIQYMVNYNDTQEFTVPGSKSTATISGLKPGVYYDIKVAAVYVAEDRPISINYRT
B6: SEQ ID NO 225 (designed binder)
chain: VSDVPRDLEVVAAAPTSLLISWDAPAVTVRKYYIWYGYSYFVAYSSYQEFTVPGSKSTATISGLKPGVRYYIGVLAVKYPGDYYPISINYRT
B7: SEQ ID NO 221 (designed binder)
chain: VSDVPRDLEVVAATPTSLLISWDAPAVTVRKYQIYYYYSAYVKESQEFTVPGSKSTATISGLKPGVSYNIAVYAVSKSRYQPPISINYRT
B8: SEQ ID NO 223 (designed binder)
chain: VSDVPRDLEVVAATPTSLLISWDAPAVTVRTYTIWYVQRYAYSQEFTVPGSKSTATISGLKPGVSYSISVRAVSTDRYYPISINYRT
B9: SEQ ID NO 214 (designed binder)
chain: VSDVPRDLEVVAATPTSLLISWDAPAVTVRSYHIYDYYNVHSYYGQEFTVPGSKSTATISGLKPGVSYAIYVGAVNEKQLGPISINYRT
B10: SEQ ID NO 212 (designed binder)
chain: VSDVPRDLEVVAATPTSLLISWDAPAVTVRTYSISYSFGLDYEYDQEFTVPGSKSTATISGLKPGVQYYIVVDAVAGWQYYPISINYRT
B11: SEQ ID NO 233 (designed binder)
chain: VSDVPRDLEVVAATPTSLLISWDAPAVTVRYYWIQYYIYYSRGTQEFTVPGSKSTATISGLKPGVNYSIGVQAVQAYFGEPISINYRT
B12: SEQ ID NO 207 (designed binder)
chain: VSDVPRDLEVVAATPTSLLISWDAPAVTVRSYYIGYSAYDEYGGRQEFTVPGSKSTATISGLKPGVSYSINVFAVYTMTGRAPISINYRT
B13: SEQ ID NO 230 (designed binder)
chain: VSDVPRDLEVVAATPTSLLISWDAPAVTVRNYYIGYRYTVANWCYQEFTVPGSKSTATISGLKPGVSYWITAKAVVFEGDHPISINYRT
B14: SEQ ID NO 232 (designed binder)
chain: VSDVPRDLEVVAATPTSLLISWDAPAVTVRGYGIYYGDTGDTQEFTVPGSKSTATISGLKPGVMYSIVVFAVEWYMWQPISINYRT
B15: SEQ ID NO 205 (designed binder)
chain: VSDVPRDLEVVAATPTSLLISWDAPAVTVRIYSIYYYSYVMRGYYFQEFTVLGSKSTATISGLKPGVNYDINVQAVYHRGWRYPISINYRT
B16: SEQ ID NO 240 (designed binder)
chain: NVSPPRRARVTDATETTITISWRTKTETITDFEVAALPMVSTGIQRTIKPDVRSYTITGLQPGTTYYISLYTLDDDGPGTPVVIDAST
B17: SEQ ID NO 229 (designed binder)
chain: VSDVPRDLEVVAATPTSLLISWDAPAVTVRTYYIGYGMYTYGQEFTVPGSKSTTTISGLKPGVVYDIYVWAVGFGRYVDPISINYRT
B18: SEQ ID NO 204 (designed binder)
chain: VSDVPRDLEVVAATPTSLLISWDAPAVTVRYYWIIYWEAWEYVQAQEFTVPGSKSTATISGLKPGVHYGIMVSAVSGEQPWYPISINYRT
B19: SEQ ID NO 201 (designed binder)
chain: VSDVPRDLEVVAATPTSLLISWDAPAVTVRGYYISYYYHSTRDSQEFTVPGSKSTATISGLKPGVSYYVGVGAVWKKDYYFPISINYRT
B20: SEQ ID NO 208 (designed binder)
chain: VSDVPRDLEVVAATPTSLLISWDAPAVTVRKYSIYYFSSYSGIAQEFTVPGSKSTATISGLKPGVYYGIYVEAVYHHYSPPISINYRT
B21: SEQ ID NO 206 (designed binder)
chain: VSDVPRDLEVVAATPTSLLISWDAPAVAVRAYSIDYYHDNGDGTQEFTVPGSKSTATISGLKPGVTYGILVYAVVSNMGIPISINYRT
B22: SEQ ID NO 235 (designed binder)
chain: VSDVPRDLEVVAATPTSLLISWDAPAVTVRDYWIYYRYSWPYGSQEFTVPGSKSTATISGLKPGVTYDIQVEAVYGSESGPISINYRT
B23: SEQ ID NO 219 (designed binder)
chain: VSDVPRDLEVVAATPTSLLISWDAPAVTVRRYYIGYNWQSPAWNQEFTVPGSKSTATISGLKPGVYYQIYVAAVLRYGDYAPISINYRT
B24: SEQ ID NO 231 (designed binder)
chain: VSDVPRDLEVVAATPTSLLISWDAPAVTVRKYYIGYKLQVMEPDQEFTVPGSKSTATISGLKPGVEYWIGVDAVSYYWGFDPISINYRT
B25: SEQ ID NO 220 (designed binder)
chain: VSDVPRDLEVVAATPTSLLISWDAPAVTVRSYSIGYFGAYRNWVQEFTVPGSKSTATISGLKPGVTYYIEVYAVYSNPVYPISINYRT
B26: SEQ ID NO 234 (designed binder)
chain: VSDVPRDLEVVAATPTSLLISWDAPAVTVRSYRIMYSGYYAWEYSRQEFTVPGSKSTATISGLKPGVIYAIHVSAVVTNWEGPISINYRT
B27: SEQ ID NO 224 (designed binder)
chain: VSDVPRDLEVVAATPTSLLISWDAPAVTVRYYSIAYWQLYLPVQEFTVPGSKSTATISGLKPGVSYGITVEAVMSGYSIYPISINYRT
B28: SEQ ID NO 238 (designed binder)
chain: VSDVPRDLEVVAATPTSLLISWDAPAVTVRIYYIAYGYYPGWGRAGSQEFTVPGSKSTATISGLKPGVTYGISVSAVEERRKVPISINYRT
B29: SEQ ID NO 222 (designed binder)
chain: VSDVPRDLEVVAATPTSLLTSWDAPAVTVRNYAIYYYDDDTGRQEFTVPGSKSTATISGLKPGVDYYIGVEAVWYWVSSPISINYRT
B30: SEQ ID NO 237 (designed binder)
chain: VSDVPRDLEVVAATPTSLLISWDAPAVTVRNYSIKYKYIPYVSHQEFTVPGSKSTATISGLKPGVTYSIRVQAVYYLIERYPISINYRT
B31: SEQ ID NO 216 (designed binder)
chain: VSDVPRDLEVVAATPTSLLISWDAPAVTVREYSIYHSWTLVYRRQEFTVPGSKSTATISGLKPGVNYYIYVGAVDNGYGPDPISINYRT
B32: SEQ ID NO 226 (designed binder)
chain: VSDVPRDLEVVAATPTSLLISWDAPAVTVRYHSIGYNYYGMYQEFTVPGSKSTATISGLKPGVYYYIYVRAVTGREAAPISINYRT
B33: SEQ ID NO 211 (designed binder)
chain: VSDVPRDLEVVAATPTSLLISWDAPAVTVRTYWIVYYRSVYSNGQEFTVPGSKSTATISGLKPGVIYSIRVIAVSYYYYGPISINYRT
B34: SEQ ID NO 236 (designed binder)
chain: VSDVPRDLEVVAATPTSLLISWDAPAVTVRYYYGIYYAGKAGGDYFITQEFTVPGSKSTATISGLKPGVEYRIYVAAVGYHYTPPISINYRT
B35: SEQ ID NO 228 (designed binder)
chain: VSDVPRDLEVVAATPTSLLISWDAPAVTVRSYKISYYGYHWVYQEFTVPGSKSTATISGLKPGVSYLISVSAVDYYGVLPISINYRT
B36: SEQ ID NO 203 (designed binder)
chain: VSDVPRDLEVVAATPTSLLISWDAPAVTVRAYQIRYAYYSVGRQEFTVPGSKSTATISGLRPGVKYHISVYAVNGGMVTDPISINYRT
B37: SEQ ID NO 227 (designed binder)
chain: VSDVPRDLEVVAATPTSLLISWDAPAVTVRTYQIEYVSSYYRWTQEFTVPGSKSTATISGLKPGVVYFIYVAAVRDGPNDPISINYRT
B38: SEQ ID NO 202 (designed binder)
chain: VSDVPRDLEVVAATPTSLLISWDAPAVTVRYYYILYGDYNAYMDYAGQEFTVPGSKSTATISGLKPGVGYVEIDVYAVRTSEEQPISINYRT

Target: T1, human serum albumin (human, UniProt P02768 25-609)
T1 construct: also called HSA
Experiment: cradle library selection hit

T1 sequence (P02768 25-609 limits assumed): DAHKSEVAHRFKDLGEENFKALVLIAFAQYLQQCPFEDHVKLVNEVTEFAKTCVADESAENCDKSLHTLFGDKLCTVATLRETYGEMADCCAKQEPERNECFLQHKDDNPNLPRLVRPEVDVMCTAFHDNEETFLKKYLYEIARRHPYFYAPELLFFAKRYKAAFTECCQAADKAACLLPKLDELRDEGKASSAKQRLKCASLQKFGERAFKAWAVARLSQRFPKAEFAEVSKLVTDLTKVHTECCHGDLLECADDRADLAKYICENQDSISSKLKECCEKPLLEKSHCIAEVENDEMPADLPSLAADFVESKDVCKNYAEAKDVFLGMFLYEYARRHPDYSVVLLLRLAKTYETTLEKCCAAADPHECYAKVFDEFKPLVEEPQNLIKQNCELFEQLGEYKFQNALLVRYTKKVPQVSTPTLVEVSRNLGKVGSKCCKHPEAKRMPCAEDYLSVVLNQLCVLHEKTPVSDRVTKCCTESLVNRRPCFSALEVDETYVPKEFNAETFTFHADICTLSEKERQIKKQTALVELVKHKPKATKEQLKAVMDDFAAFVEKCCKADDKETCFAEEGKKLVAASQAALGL

Binding result, binds:
B1, B2, B3, B4, B5, B6, B7, B8, B9, B10, B11, B12, B13, B14, B15, B16, B17, B18, B19, B20, B21, B22, B23, B24, B25, B26, B27, B28, B29, B30, B31, B32, B33, B34, B35, B36, B37, B38
